Values quoted from earlier work as cited in patent US10786531B2, “Mineral salt-sulfonic acid compositions and methods of use” (BMG PHARMA SPA, priority 2009, dated 2020).

Conditions: animal studies

B1: lactoferrin: globular, cationic, non-heme iron-binding protein (protein, UniProt P02788 20-710, looked up)
Lactotransferrin: GRRRSVQWCAVSQPEATKCFQWQRNMRKVRGPPVSCIKRDSPIQCIQAIAENRADAVTLDGGFIYEAGLAPYKLRPVAAEVYGTERQPRTHYYAVAVVKKGGSFQLNELQGLKSCHTGLRRTAGWNVPIGTLRPFLNWTGPPEPIEAAVARFFSASCVPGADKGQFPNLCRLCAGTGENKCAFSSQEPYFSYSGAFKCLRDGAGDVAFIRESTVFEDLSDEAERDEYELLCPDNTRKPVDKFKDCHLARVPSHAVVARSVNGKEDAIWNLLRQAQEKFGKDKSPKFQLFGSPSGQKDLLFKDSAIGFSRVPPRIDSGLYLGSGYFTAIQNLRKSEEEVAARRARVVWCAVGEQELRKCNQWSGLSEGSVTCSSASTTEDCIALVLKGEADAMSLDGGYVYTAGKCGLVPVLAENYKSQQSSDPDPNCVDRPVEGYLAVAVVRRSDTSLTWNSVKGKKSCHTAVDRTAGWNIPMGLLFNQTGSCKFDEYFSQSCAPGSDPRSNLCALCIGDEQGENKCVPNSNERYYGYTGAFRCLAENAGDVAFVKDVTVLQNTDGNNNEAWAKDLKLADFALLCLDGKRKPVTEARSCHLAMAPNHAVVSRMDKVERLKQVLLHQQAKFGRNGSDCPDKFCLFQSETKNLLFNDNTECLARLHGKTTYEKYLGPQYVAGITNLKKCSTSPLLEACEFLRK
dose well tolerated with minimum toxic effects: 2000 mg/kg/day
